The text below walks through data of article PMC10802294 (bioRxiv, 2024).

Side chains are listed from the residue outwards. Ends that are not written are not given here. * marks the point of attachment. Biotin = O=C1N[C@H]2[C@H](CS[C@H]2CCCCC(=O)*)N1; RADP = not defined here; Aoa = not defined here

In test [1] the target is SARS-CoV-2 Mac1 protein (WT) (SARS-CoV-2, UniProt P0DTC1 1023-1197). The experiment in a line: AlphaScreen or HTRF. (In general: In Alpha technology, singlet oxygen from a donor bead excites a nearby acceptor bead.)
The target of test [2] is MERS-CoV Mac1 protein (WT) (MERS-CoV, UniProt K9N638 1110-1273). The experiment in a line: AlphaScreen or HTRF.
Chain of MERS-CoV Mac1 protein (WT) (K9N638 1110-1273): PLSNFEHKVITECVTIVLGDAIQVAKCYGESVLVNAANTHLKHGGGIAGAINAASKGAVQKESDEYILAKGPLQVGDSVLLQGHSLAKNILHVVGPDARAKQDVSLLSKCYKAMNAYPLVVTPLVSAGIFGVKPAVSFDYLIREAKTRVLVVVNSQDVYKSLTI

For ARTK(Biotin)QTARK([Aoa-RADP])S (reading uncertain) [10 amino acid biotinylated and ADP-ribosylated peptide [ARTK(Bio)QTARK(Aoa-RADP)S]], the binding result in test [1] and in test [2] was “binds” each time.
